Consider 5 molecules from patent US20210070883A1 (AQUALUNG THERAPEUTICS, published 2021).

Test [1] deals with T1, human nicotinamide phosphoribosyltransferase (NAMPT) (human, UniProt P43490 1-491).
T1 construct: Recombinant hNAMPT was bought (MBL International); In the Western blots the protein was recombinant or in HPAEC lysate; also called hNAMPT; recombinant hNAMPT
The test can be described thus: told with the Pepscan epitope mapping; assay for the dimer not described.

Another test concerns the target T2, mouse NAMPT (mouse, UniProt Q99KQ4 1-491, limits assumed).
T2 construct: Recombinant mNAMPT; also called mNAMPT; recombinant mouse NAMPT
The test can be described thus: Western blot on recombinant mNAMPT and mouse lung lysates (SB, LPS, VILI), exposures of 30 sec and 5 min.

The target of test [2] is T1, human nicotinamide …. The test can be described thus: Western blot on recombinant hNAMPT and HPAEC cell lysate, exposures of 30 sec and 5 min.

T2 sequence (Q99KQ4 whole entry): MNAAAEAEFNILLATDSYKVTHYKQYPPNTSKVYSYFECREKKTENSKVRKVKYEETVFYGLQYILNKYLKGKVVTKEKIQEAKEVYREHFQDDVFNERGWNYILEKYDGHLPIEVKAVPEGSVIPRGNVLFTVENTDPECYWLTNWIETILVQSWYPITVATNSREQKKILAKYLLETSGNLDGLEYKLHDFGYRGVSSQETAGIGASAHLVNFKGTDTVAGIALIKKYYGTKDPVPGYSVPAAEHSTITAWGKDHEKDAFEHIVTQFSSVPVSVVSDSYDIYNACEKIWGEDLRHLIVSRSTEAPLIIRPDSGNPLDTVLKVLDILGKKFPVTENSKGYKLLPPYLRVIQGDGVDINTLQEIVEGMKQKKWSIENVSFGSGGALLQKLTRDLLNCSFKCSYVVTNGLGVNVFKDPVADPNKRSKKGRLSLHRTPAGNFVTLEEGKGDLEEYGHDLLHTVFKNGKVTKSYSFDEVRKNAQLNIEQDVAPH
T1 sequence (P43490 whole entry): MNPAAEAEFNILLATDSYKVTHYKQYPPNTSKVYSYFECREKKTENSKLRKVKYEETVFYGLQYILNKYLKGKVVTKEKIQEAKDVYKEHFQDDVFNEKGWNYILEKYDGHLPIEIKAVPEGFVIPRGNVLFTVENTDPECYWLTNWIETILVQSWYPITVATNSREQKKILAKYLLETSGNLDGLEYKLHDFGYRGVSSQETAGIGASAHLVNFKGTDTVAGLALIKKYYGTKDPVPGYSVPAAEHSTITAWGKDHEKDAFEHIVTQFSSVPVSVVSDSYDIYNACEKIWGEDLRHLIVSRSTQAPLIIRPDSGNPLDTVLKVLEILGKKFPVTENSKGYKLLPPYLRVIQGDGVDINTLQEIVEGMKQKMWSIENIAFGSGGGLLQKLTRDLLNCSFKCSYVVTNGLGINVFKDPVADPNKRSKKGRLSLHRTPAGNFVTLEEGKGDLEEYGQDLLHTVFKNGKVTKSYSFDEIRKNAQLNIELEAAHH

B1: 1076 humanized anti-hNAMPT antibody K-1076 (antibody, V domains shown)
VH: QVQLVQSGAEVKKPGASVKVSCKASGYTFTSYWMQWVRQAPGQGLEWMGEIDPSNSYTNYNQKFRGRVTMTTDTSTSTAYMELRSLRSDDTAVYYCARGGYWGQGTTVTVSS
VL: DIVMTQSPLSLPVTPGEPASISCRSSKSLLHSQGITYLYWYLQKPGQSPQLLIYQLSNRASGVPDRFSGSGSGTDFTLKISRVEAEDVGVYYCVQNLELPYTFGGGTKLEIK
notes: also called Ab-1076-HC2-LC5
With B1, the binding result in test [1] is on record as “binds”.

B2: 1093 humanized anti-hNAMPT antibody NN-1093 (antibody, V domains shown)
VH: QVQLVQSGAEVTKPGASVKVSCKASGYTFTSYWMHWVRQAPGQGLEWVGEIDPSDSYTNYNQKFKGRVTLTRDTSTTTVYMELSSLRSEDTAVYYCAKSNYVVPWYFDVWGQGTTVTVSS
VL: EIVLTQSPATLSLSPGERATLSCRSSKSLLHSNGITYLYWYQQKPGQAPRLLIYQMSNLASGIPARFSGSGSGTDFTLTISSLEPEDFAVYYCAQNLELPWTFGGGTKLEIK
notes: Humanized from AL-310; it was detected with a goat anti-human antibody
Consider B2, for which the binding result in test [1] is recorded as “binds”.

B3: murine anti-hNAMPT antibody AL-303 (antibody, V domains shown)
VH: QVQLQQPGADLVKPGASVKLSCKASGYTFTSYWMQWVKQRPGQGLEWIGEIDPSNSYTNYNQKFRGKATLTVDPSSSTAYMQLSSLTSEDSAVYYCARGGYWGQGTTLTVSS
VL: DIVMTQAAFSNPVTLGTSASISCRSSKSLLHSNGITYLYWYLQKPGQSPQLLIYQMSNLASGVPDRFSSSGSGTDFTLRISRVEAEDVGVYYCVQNLELPYTFGGGTKLEIK
notes: Murine monoclonal antibody
B3: the binding result (in the test with mouse NAMPT; in test [2]) was “binds” each time.

B4: murine anti-NAMPT antibody AL-310 (antibody, V domains shown)
VH: QVQLQQSGAESVMPGASVKLSCKASGYTFTSYWMHWVKQRPGQGLEWIGEIDPSDSYTNYNQKFKGKSTLTVDKSSSTAYMQLSSLTSEDSAVYYCAKSNYVVPWYFDVWGTGTTVTVSS
VL: DIVMTQAAFSNPVTLGTSASISCRSSKSLLHSNGITYLYWYLQKPGQSPQLLIYQMSNLASGVPDRFSSSGSGTDFTLRISRVEAEDVGVYYCAQNLELPWTFGGGTKLEIK
notes: Murine monoclonal antibody; also called AL-310mAb
As for B4, the binding result with mouse NAMPT was “no binding”; in test [2], “binds”.

B5: murine anti-NAMPT antibody AL-304 (antibody, V domains shown)
VH: QVQLQQPGADLVKPGASVKLSCKASGYTFTSYWMQWVKQRPGQGLEWIGEIDPSNSYTNYNQKFRGKATLTVDPSSSTAYMQLSSLTSEDSAVYYCARGGYWGQGTTLTVSS
VL: DIVMTQAAFSNPVTLGTSASISCRSSKSLLHSNGITYLYWYLQKPGQSPQLLIYQMSNLASGVPDRFSSSGSGTDFTLRISRVEAEDVGVYYCVQNLELPYTFGGGTKLEIK
On to B5, for which the binding result (with mouse NAMPT; in test [2]) was “binds” each time.
